# Legend:
# [1] = biological target: 1067 antitoxin (IPF_1067, ParD-like antitoxin), C-terminally His-tagged (Microcystis aeruginosa PCC 7806); assay: […]; 20 mM HEPES pH 7.4, 150 mM NaCl, room temperature
# [2] = biological target: 1065 toxin (IPF_1065, RelE/ParE-like toxin), C-terminally His-tagged (Microcystis aeruginosa PCC 7806); assay: SEC-MALS
substance,measurement,setting,value
"1067 antitoxin (IPF_1067, ParD-like antitoxin), C-terminally His-tagged (natural protein)",stoichiometry N,[1],2
"1067 antitoxin (IPF_1067), non-tagged, coexpressed with the 1065 toxin (natural protein)",stoichiometry N (antitoxin per toxin),[2],2

# From PMC7935541
